For assay [1], the target named is platelet glycoprotein Ib (GPIb) (human) (UniProt P07359).
The target is the same in assay [2]. This is another data set of the same source.
The target is the same in assay [3]. This is another data set of the same source.
Assay [4] shares this target. This is another data set of the same source.
Assay [5] has the same target. This is another data set of the same source.
Assay [6] has the same target. The source holds these as a separate data set.
The target is the same in assay [7]. This is another data set of the same source.
For assay [8] the target is unchanged. The source holds these as a separate data set.
Assay [9] shares this target. This is another data set of the same source.
Assay [10] has the same target. The source holds these as a separate data set.
Assay [11] has the same target. This is another data set of the same source.
Assay [12] shares this target. The assay can be described thus: platelet adhesion to immobilized VCL on a glass cover slip in a laminar flow cell.
For assay [13] the target is unchanged. The assay can be described thus: platelet adhesion to immobilized VCL against immobilized albumin in a laminar flow cell.
Assay [14] relates to rat platelet rich plasma (PRP). The assay can be described thus: vWF-dependent platelet aggregation assay in platelet rich plasma (PRP). It counts as cell-based. To be noted: ristocetin up to 5.0 mg/ml, no additional agent. The protocol:
This is a standardized von Willebrand Factor (vWF)-dependent aggregation assay using human or rat platelet rich plasma (PRP). The addition of various concentrations of unfractionated Bothrops jararaca venom (BJV), which includes botrocetin and an additional thrombin-like component, or ristocetin results in an aggregatory response in the absence of any additional agent. Using ristocetin (1.5 mg/ml) as the agonist 43 μg/ml VCL abolished the aggregation of human PRP.

“And” between values parts separate entries of the source, which are not always exact repeats. Equal entries are not always repeated.

In turn, “VCL, a vWF GPIb binding domain polypeptide (methionine plus amino acids 504-728 of mature human vWF) (ligand)” yielded a % Inhibition of Platelet Aggregation (asialo-vWF induced, in PRP) in [1] of 76%. The substance further yielded a % Inhibition of Platelet Aggregation (ristocetin induced, washed human platelets with intact vWF) in assay [2] of 100%. In assay [3], the Dissolution of preformed aggregates (made by RIPA) came to 0.5 µM VCL; the IC50, Asialo vWF induced platelet aggregation turned out to be 0.15 µM VCL; the IC50, Platelet deposition under conditions of flow (everted denuded human umbilical artery, whole human blood) is 1 µM VCL; the IC50, Ristocetin induced platelet aggregation is 0.2 µM VCL and 0.3 µM VCL. In assay [3], this substance gave an IC50, Thrombin induced platelet aggregation of 0.3 µM VCL. This substance registered a Ristocetin induced platelet aggregation (RIPA) in assay [4] of 100 % inhibition. The platelet adhesion to endothelial cell extracellular matrix (ECM) in a laminar flow cell in assay [5] turned out to be 70 % inhibition. In addition, the IC50, platelet adhesion to ECM at a shear rate of 1300 s^-1 in [6] is 800 nM. The same substance registered a platelet adhesion to immobilized fibrinogen in a laminar flow cell in [7] of 75 % inhibition. Also, in [8], the platelet adhesion to immobilized collagen (type I) in a laminar flow cell came out at 50 % inhibition. The substance also had a platelet adhesion to immobilized vWF in a laminar flow cell in assay [9] of 25 % inhibition. In assay [10], the platelet adhesion to immobilized fibronectin in a laminar flow cell turned out to be 80 % inhibition. Besides, the platelet deposition on damaged porcine aorta perfused ex vivo with normal human blood in [11] came to 60 % reduction. The substance also came in with a percent coverage of the test surface by platelets in assay [12] below 5 % coverage. Also, in [13], the fold of adhesion to albumin was 10 fold.

Take ristocetin: the “Aggregation of rat PRP induced by ristocetin” value in [14] is on record as “did not cause measurable aggregation”.

The record behind these values is patent US6008193A, “Methods of using human von Willebrand factor GPIb binding domain polypeptides” (Bio-Technology General Corp., priority 1995, dated 1999).
